Assay results taken from US20090252749A1.
Values joined by “and” are separate entries in the source; they are usually repeats but may differ in a detail not shown here. Equal entries are not always repeated.

Target: B7 protein on the antigen presenting cell (Daudi B cells)
Test: cell-based or functional assay

EC50 (ng/mL), human IL-2 promoter mediated luciferase activity: 19.1 ng/mL and 21.5 ng/mL and 21.8 ng/mL | Lower Asymptote (CPS), human IL-2 promoter mediated luciferase activity: 27000 CPS and 30000 CPS and 29000 CPS | Upper Asymptote (CPS), human IL-2 promoter mediated luciferase activity: 81000 CPS and 85000 CPS and 88000 CPS
Substance: CTLA4^A29YL104E-Ig (Fc fusion)
